Assay results as given in patent US20240166767A1 (SCIRHOM, published 2024).

Biological target: T1, endogenous human iRhom1 (RH-30 cells) (human, UniProt Q96CC6 1-855)
T1 construct: RH-30 cells are described as endogenously negative for iRhom2 but endogenously expressing iRhom1; also called iRhom1 endogenously expressed by RH-30 cells
T1 sequence: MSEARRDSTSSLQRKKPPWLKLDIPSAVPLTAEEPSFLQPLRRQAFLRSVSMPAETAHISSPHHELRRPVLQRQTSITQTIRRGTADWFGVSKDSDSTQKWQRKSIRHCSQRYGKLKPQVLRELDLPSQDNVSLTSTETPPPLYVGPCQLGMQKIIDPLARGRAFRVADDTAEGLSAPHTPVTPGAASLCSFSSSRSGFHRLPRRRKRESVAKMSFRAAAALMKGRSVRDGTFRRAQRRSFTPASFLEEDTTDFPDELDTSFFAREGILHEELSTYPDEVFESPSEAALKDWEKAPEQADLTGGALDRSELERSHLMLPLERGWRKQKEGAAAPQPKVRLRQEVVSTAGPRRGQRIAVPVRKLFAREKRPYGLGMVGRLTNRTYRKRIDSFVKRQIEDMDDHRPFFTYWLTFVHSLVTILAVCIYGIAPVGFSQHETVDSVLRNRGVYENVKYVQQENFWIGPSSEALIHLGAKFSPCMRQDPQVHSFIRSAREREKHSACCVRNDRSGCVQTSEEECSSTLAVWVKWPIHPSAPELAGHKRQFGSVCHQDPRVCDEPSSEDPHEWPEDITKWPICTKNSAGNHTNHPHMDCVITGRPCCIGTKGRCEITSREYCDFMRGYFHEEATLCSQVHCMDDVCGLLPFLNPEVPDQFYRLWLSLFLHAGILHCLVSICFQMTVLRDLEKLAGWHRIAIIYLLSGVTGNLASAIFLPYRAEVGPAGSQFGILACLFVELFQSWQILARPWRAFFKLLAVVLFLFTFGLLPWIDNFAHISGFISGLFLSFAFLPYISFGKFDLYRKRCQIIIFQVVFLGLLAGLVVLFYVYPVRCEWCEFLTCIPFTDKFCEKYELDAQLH
Experiment: FACS on RH-30 cells (endogenously negative for iRhom2, endogenously expressing iRhom1)
Experimental: In brief, human RPMI-8226 cells (Deutsche Sammlung von Mikroorganismen und Zellkulturen, Germany), THP-1 cells (American Type Culture Collection, USA) and RH-30 cells (Deutsche Sammlung von Mikroorganismen und Zellkulturen, Germany) were harvested with 10 mM EDTA in PBS, washed and resuspended in FACS buffer (PBS, 3% FBS, 0.05% sodium azide), and seeded in Nunc U-bottom 96-well plates (Thermo Fisher Scientific, USA) at approximately 2×10⁵ cells per well. In order to pellet cells and remove supernatants, the plates were centrifuged at 1,500 rpm and 4° C. for 3 minutes. For primary staining, cells were resuspended in 100 μl per well of either FACS buffer alone (controls) or […] of the antibodies of the invention in FACS buffer and incubated on ice for 1 hour. Afterwards, plates were centrifuged at 1,500 rpm and 4° C. for 3 minutes and washed twice with 200 μl per well of FACS buffer. For secondary staining, cells were spun down and resuspended in 100 μl per well of PE-conjugated goat anti-human IgG F(ab′)2 detection fragment (Dianova, Germany) diluted 1:100 in FACS buffer. Protected from light, the cell suspensions were incubated on ice for 1 hour. […] Finally, cells were resuspended in 150 μl per well of FACS buffer and analyzed using a BD Accuri™ C6 Plus flow cytometer (Becton Dickinson, Germany).

B1: humanized antibody 42-B-02 (antibody, V domains shown)
VH: QVTLRESGPALVKPTQTLTLTCTFSGFSLSTFGRGVGWIRQPPGKALEWLAHIWWDDEKYYNSALKSRLTISKDTSKNQVVLTITNMDPVDTATYYCARIQNYGSNYWYFDVWGQGTLVTVSS
VL: AIQLTQSPSSLSASVGDRVTITCRASSRISYMFWYQQKPGKAPKVLIYDTSNLASGVPSRFSGSGSGTDYTLTISSLQPEDFATYYCQQWNSYPLTFGQGTKLEIK
notes: Tested as whole humanized antibody from transient expression of heavy chain/kappa light chain pairs in CHO cells, detected with anti-human IgG; the general methods speak of human IgG1/Kappa; also called clone 42-B-02
- binding result: no binding (tested: 3 µg/ml)
